Values belong to the compound of their own block, whether it stands above or below them.
Experiments:
CD11c^− microglia = assay: Apoptotic neuron (AN) uptake and CD11c^- to CD11c^+ differentiation of microglia with αVβ3 / TAM receptor inhibitors; type: cell-based, mouse; conditions: P5 B6-WT CD11c^− microglia, 72 h with pHrodo-labeled ANs 1:1; cilengitide 10 μM, LDC1267 1 μM
Text: (A) Brain single cell suspensions of 9-mo old WT mice were generated for validation of microglial CD11c expression by flow cytometry. We first gate on CD11b^+ cells from single/live cells followed by subsequent gating of CD11b^+CD45^low populations as potential microglia. […] In contrast, CCR2 but not Tmem 119 expression is detected in the CD11b^+CD45^high fraction, i.e., putative macrophage populations. Analysis of the CD11b^+CD45^low microglial population using FMO negative controls for these FACS plots confirms specificity. […] (B) The proportion of CD11c^+ microglia in C57BL/6 (B6) mice during early development and normal aging (n=3) was determined by flow cytometry analysis. CD11c^+ microglia were initially present at late embryonic day (E18.5), peaked at early postanal day (P5) and gradually declined to marginal levels in young adulthood (3-mon) followed by re-emergence and further expansion during aging. (C) CD11c^− microglia were isolated from P5 B6-WT mice by negative section with anti-CD11c magnetic beads (purity >99%) followed by co-incubation×72 h in the presence or absence of pHrodo fluorescent dye-labeled apoptotic neurons (ANs) at a 1:1 ratio. After 72 h incubation, 23% of total CD11c^− microglia had ingested ANs (AN^+), of which 77.4% of these AN^+ microglia were CD11c^+. […] Expression of CD11c was assessed in CD86^+ or MHC II^+ activated microglia. […]

[1] = molecular target: CD11b on microglia from 5XFAD mice (mouse) (UniProt P05555); assay: flow cytometry, AF488-CD11b fluorescence, microglia from 5XFAD mice; isotype control histogram (top trace) [B]
[2] = molecular target: osteopontin (OPN) produced by mouse microglia (mouse) (UniProt P10923); assay: intracellular flow cytometry, SSC against OPN, microglia of 9-mo mice stained with the isotype control 1:10 (genotype of this panel not labelled)
[3] = molecular target: osteopontin (OPN) produced by mouse microglia (mouse) (UniProt P10923); assay: intracellular flow cytometry, SSC against OPN, microglia stained with the isotype control (the legend says only 'Isotype control'; genotype of this panel not labelled) [b]

Chain of UniProt P10923 (P10923 17-294 limits assumed): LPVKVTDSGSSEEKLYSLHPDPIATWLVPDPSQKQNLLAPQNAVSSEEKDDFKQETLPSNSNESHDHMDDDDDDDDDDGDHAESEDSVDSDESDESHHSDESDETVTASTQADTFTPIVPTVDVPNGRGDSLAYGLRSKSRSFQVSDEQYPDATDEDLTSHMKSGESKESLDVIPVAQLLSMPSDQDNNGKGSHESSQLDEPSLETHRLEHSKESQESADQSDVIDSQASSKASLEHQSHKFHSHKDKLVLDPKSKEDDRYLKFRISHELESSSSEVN
Chain of UniProt P05555 (P05555 17-1153): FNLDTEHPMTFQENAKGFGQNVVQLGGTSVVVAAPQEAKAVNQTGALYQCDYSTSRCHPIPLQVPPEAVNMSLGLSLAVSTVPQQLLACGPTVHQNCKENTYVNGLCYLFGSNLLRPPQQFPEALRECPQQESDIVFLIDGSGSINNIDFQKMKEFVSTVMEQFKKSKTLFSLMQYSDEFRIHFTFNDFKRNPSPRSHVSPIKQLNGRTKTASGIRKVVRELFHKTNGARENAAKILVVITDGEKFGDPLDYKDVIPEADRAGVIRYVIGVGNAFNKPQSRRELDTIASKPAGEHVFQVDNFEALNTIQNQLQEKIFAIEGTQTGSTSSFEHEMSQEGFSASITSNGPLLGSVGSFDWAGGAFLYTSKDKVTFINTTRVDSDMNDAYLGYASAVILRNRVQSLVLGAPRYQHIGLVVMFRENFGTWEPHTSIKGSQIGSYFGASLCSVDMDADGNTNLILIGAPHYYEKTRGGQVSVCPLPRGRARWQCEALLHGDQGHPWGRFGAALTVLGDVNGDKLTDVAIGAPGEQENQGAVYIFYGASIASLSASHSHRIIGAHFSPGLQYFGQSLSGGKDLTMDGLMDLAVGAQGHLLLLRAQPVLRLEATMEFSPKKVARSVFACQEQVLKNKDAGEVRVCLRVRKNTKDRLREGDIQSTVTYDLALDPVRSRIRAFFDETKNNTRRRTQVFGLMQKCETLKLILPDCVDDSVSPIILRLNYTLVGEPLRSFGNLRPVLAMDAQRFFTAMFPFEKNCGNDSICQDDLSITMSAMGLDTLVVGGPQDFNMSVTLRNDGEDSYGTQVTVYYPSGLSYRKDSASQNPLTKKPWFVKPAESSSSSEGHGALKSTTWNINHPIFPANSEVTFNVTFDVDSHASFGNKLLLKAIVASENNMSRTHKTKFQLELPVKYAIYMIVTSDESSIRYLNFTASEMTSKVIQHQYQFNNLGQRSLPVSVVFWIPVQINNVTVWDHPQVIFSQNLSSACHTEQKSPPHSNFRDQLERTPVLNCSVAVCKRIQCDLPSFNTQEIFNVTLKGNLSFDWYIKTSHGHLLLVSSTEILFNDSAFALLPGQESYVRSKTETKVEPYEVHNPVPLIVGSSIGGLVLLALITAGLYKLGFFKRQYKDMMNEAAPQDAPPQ

- reduction of AN uptake by CD11c^− microglia (CD11c^− microglia): about 50%
Compound: CCOc1cn(-c2ccc(F)cc2C)nc1C(=O)Nc1ccc(Oc2ccnc3cc(OC)c(OC)cc23)c(F)c1 [LDC1267]

- CD11b+ microglia (%) [1]: 0.4%
Compound: Isotype (antibody)

- number printed over the OPN+ gate (frequency of OPN+ microglia) [2]: 0.4%
- number printed in the OPN+ gate (frequency of OPN+ microglia) [3]: 0.25%
Compound: isotype control (PE-conjugated goat IgG) (antibody)

— patent publication US20250381277A1, “COMPOSITIONS AND METHODS FOR TREATMENT OF NEUROLOGICAL DISORDERS” (Dana-Farber Cancer Institute, Inc., priority 2022, published 2025)
